B1: HDV Ribozyme (parent)
chain: GGCCGGCAUGGUCCCAGCCUCCUCGCUGGCGCCGGCUGGGCAACAUUCCGAGGGGACCGUCCCCUCGGUAAUGGCGAAUGGGACCCA

This data set covers variants of B1. The data set is described as follows: self-cleavage, relative activity (ratio to wild type); higher = more cleavage; co-transcriptional.
Take C7A C15A: the self-cleavage came out at 0.0415.

Turning to C3U C49A, the self-cleavage stood at 0.843.

With U27C C30U, the self-cleavage worked out at 0.426.

On to C7U C30G, for which the self-cleavage worked out at 0.

With G11A C85U, the self-cleavage was 0.787.

For G25U A77G, the self-cleavage turned out to be 0.145.

As to G5A A83G, the self-cleavage turned out to be 0.297.

Turning to C57U C58A, the self-cleavage turned out to be 1.13.

Take A51C U69G: the self-cleavage amounted to 1.15.

As for C36G G80C, the self-cleavage is 0.108.

On to G67C G73A, for which the self-cleavage was found to be 0.327.

For G38A G39C, the self-cleavage amounted to 0.0923.

As for C33U A71C, the self-cleavage was 0.374.

On to G17C C21G, for which the self-cleavage was 0.145.

With G28U G38C, the self-cleavage was found to be 0.0665.

For C4U G82A, the self-cleavage was found to be 0.0959.

As for C7U U37C, the self-cleavage came to 1.14.

As for A8C G11A, the self-cleavage was 0.229.

Consider G1C G34U, for which the self-cleavage was determined as 0.0692.

For C13A C44G, the self-cleavage is 0.

Turning to C21G U79A, the self-cleavage is 0.0875.

For the variant C33G C49U, the self-cleavage is 0.0923.

For the variant G2A A8G, the self-cleavage stood at 0.0773.

For the variant C21G C58U, the self-cleavage was 0.0314.

For the variant C19U C58U, the self-cleavage came out at 0.126.

G55U C66U: the self-cleavage was 0.973.

Consider A43U C63U, for which the self-cleavage was found to be 0.554.

Regarding A16G U72A, the self-cleavage worked out at 0.499.

On to G2U G6A, for which the self-cleavage was 0.0355.

With A8U C48G, the self-cleavage was determined as 1.25.

C7A U65C: the self-cleavage was determined as 0.522.

In the case of A42G G76U, the self-cleavage is 0.782.

Take G1A C13U: the self-cleavage worked out at 0.119.

Take A42U G68C: the self-cleavage is 0.397.

With A45G G53U, the self-cleavage stood at 0.884.

Consider G11U G68C, for which the self-cleavage came to 0.297.

As to C48U C62A, the self-cleavage is 0.847.

Turning to G39C G80C, the self-cleavage was 0.0845.

Regarding A8U C30A, the self-cleavage was found to be 0.299.

For C22A G74U, the self-cleavage turned out to be 0.0213.

As for C14U U72C, the self-cleavage amounted to 0.532.

Take G39C A77U: the self-cleavage was 0.121.

Turning to G68A A77U, the self-cleavage is 0.394.

For G2C C85A, the self-cleavage is 0.0287.

For the variant C13A G68C, the self-cleavage amounted to 0.151.

Regarding C62U C64A, the self-cleavage was 0.845.

As to G10A A51C, the self-cleavage is 0.623.

With A16U A42U, the self-cleavage stood at 0.465.

For U23A C66U, the self-cleavage was found to be 0.943.

In the case of G67U G73U, the self-cleavage is 0.263.

On to G2C C32A, for which the self-cleavage worked out at 0.0712.

A71C U79A: the self-cleavage came to 0.529.

For G25U A43G, the self-cleavage was 0.0573.

Consider G38C C64G, for which the self-cleavage is 0.415.

Regarding C44U U69G, the self-cleavage amounted to 0.957.

As to G10U U27A, the self-cleavage is 0.642.

Take U47A A83C: the self-cleavage amounted to 0.391.

Regarding C19U C64A, the self-cleavage is 0.0554.

Consider G29C A51G, for which the self-cleavage turned out to be 0.

On to U9G G59A, for which the self-cleavage turned out to be 1.16.

For the variant A43U, the self-cleavage is 0.546.

A42C G53A: the self-cleavage is 0.289.

Consider U12A G28A, for which the self-cleavage turned out to be 0.0314.

Regarding C15A C18G, the self-cleavage came out at 0.111.

Turning to G5U C85U, the self-cleavage was 0.399.

Turning to G17C C57A, the self-cleavage stood at 0.437.

Consider G35U C62A, for which the self-cleavage was 0.261.

Turning to G52U, the self-cleavage was determined as 0.938.

In the case of C14U C66G, the self-cleavage stood at 0.884.

For the variant A16U A56C, the self-cleavage is 0.906.

Regarding C30U G40A, the self-cleavage was 0.645.

With G52A A87U, the self-cleavage turned out to be 0.897.

Consider A42G G54A, for which the self-cleavage worked out at 0.567.

Consider G5U C66U, for which the self-cleavage is 0.677.

Regarding C7U G28C, the self-cleavage was 0.237.

In the case of C7G G59A, the self-cleavage came to 0.332.

C48A C85U: the self-cleavage amounted to 1.16.

On to G6U C64A, for which the self-cleavage came out at 0.415.

Turning to G35U C57U, the self-cleavage amounted to 0.538.

As for A45U U69A, the self-cleavage stood at 0.77.

Consider C18U C24A, for which the self-cleavage worked out at 0.123.

A8C A78G: the self-cleavage turned out to be 0.35.

With C14G C41U, the self-cleavage amounted to 0.462.

In the case of C36U C66A, the self-cleavage turned out to be 0.712.

For the variant G31U C85U, the self-cleavage was 0.441.

Turning to G2C G73A, the self-cleavage stood at 0.0252.

Consider G67A G74U, for which the self-cleavage turned out to be 0.534.

Regarding G55U A78U, the self-cleavage worked out at 0.224.

For C21A C66G, the self-cleavage amounted to 0.

Consider C15G C19A, for which the self-cleavage is 0.0831.

On to G10A A87U, for which the self-cleavage amounted to 0.779.

Consider C18G U37A, for which the self-cleavage amounted to 0.111.

As for A8G U23G, the self-cleavage came out at 0.776.

With C13A G38A, the self-cleavage was 0.0631.

For C13A G38U, the self-cleavage amounted to 0.0536.

As to G10U A43C, the self-cleavage worked out at 0.115.

For G59A A78U, the self-cleavage amounted to 0.346.

Take G2A G81A: the self-cleavage came to 0.0692.

In the case of A43G U72G, the self-cleavage turned out to be 0.554.

U9A G50C: the self-cleavage was found to be 0.898.

For the variant G11U C84A, the self-cleavage came to 1.12.

Regarding C75U C86A, the self-cleavage was 0.111.

Regarding C62U G73C, the self-cleavage stood at 0.354.

Turning to G5U U69C, the self-cleavage came to 0.277.

G2U A56C: the self-cleavage was 0.0405.

With G55A G81C, the self-cleavage stood at 0.312.

Take C26G U79G: the self-cleavage came to 0.8.

For C26G U79A, the self-cleavage turned out to be 0.692.

Turning to C19G A45U, the self-cleavage was determined as 0.0396.

For G1A C14U, the self-cleavage amounted to 0.415.

On to U20A G28C, for which the self-cleavage came out at 0.0573.

As to G10U C36G, the self-cleavage was found to be 0.0615.

A43U G67A: the self-cleavage came to 0.237.

On to G34U U72A, for which the self-cleavage stood at 0.151.

With U9G U20A, the self-cleavage was 0.

C19A U72G: the self-cleavage worked out at 0.095.

In the case of C19A C30U, the self-cleavage worked out at 0.0623.

Take C13A G55A: the self-cleavage came to 0.222.

As to G25A G76A, the self-cleavage turned out to be 0.203.

Turning to G68C A70C, the self-cleavage turned out to be 0.63.

Consider G5A G29C, for which the self-cleavage was determined as 0.0755.

On to G54A C75U, for which the self-cleavage stood at 0.164.

As to G38C C75A, the self-cleavage was 0.

As for U65A G82A, the self-cleavage stood at 0.281.

Take C22A G59A: the self-cleavage was 0.359.

With U20C C22U, the self-cleavage worked out at 0.125.

C33G U47C: the self-cleavage amounted to 0.317.

Take U47C: the self-cleavage amounted to 0.906.

For G10C C44G, the self-cleavage came to 0.415.

Regarding G5U C14A, the self-cleavage came out at 0.0791.

As to U47C A51U, the self-cleavage was determined as 0.831.

Consider A8G G74C, for which the self-cleavage was determined as 0.0639.

Consider C62A A70U, for which the self-cleavage came to 0.955.

U9C G80A: the self-cleavage turned out to be 0.277.

With C4G G10A, the self-cleavage is 0.105.

For C58A U60C, the self-cleavage turned out to be 1.17.

C19A G74U: the self-cleavage was found to be 0.101.

Turning to G35U A43G, the self-cleavage is 0.185.

As for G35C A77G, the self-cleavage was 0.18.

C3A C32U: the self-cleavage worked out at 0.119.

Turning to C14G U60G, the self-cleavage was found to be 0.511.

For the variant C24G G59C, the self-cleavage came to 0.0923.

As to C57A G81C, the self-cleavage is 0.181.

As to U12A U20C, the self-cleavage was found to be 0.

As to C3G U23G, the self-cleavage was 0.0791.

As to C64G U72C, the self-cleavage is 0.364.

Regarding G1C G50A, the self-cleavage worked out at 0.277.

G17C C48A: the self-cleavage came out at 0.388.

Regarding A8C C33A, the self-cleavage is 0.0504.

Turning to G29U A77U, the self-cleavage was 0.117.

Consider G6U G25A, for which the self-cleavage was determined as 0.169.

Regarding G35U G53U, the self-cleavage was determined as 0.288.

For G2A A42G, the self-cleavage amounted to 0.0302.

As for U37C C44A, the self-cleavage is 0.499.

Regarding G29C A78U, the self-cleavage came out at 0.0773.

As for C3A A16G, the self-cleavage stood at 0.401.

As to A16C A45C, the self-cleavage worked out at 0.35.

Turning to C41A G81U, the self-cleavage turned out to be 0.211.

As to U37C G81C, the self-cleavage is 0.138.

Turning to A16U C18U, the self-cleavage is 0.427.

Turning to C63A G81U, the self-cleavage was 0.244.

For the variant G67U U72G, the self-cleavage came out at 0.389.

As for A51U G81U, the self-cleavage turned out to be 0.282.

Regarding G17C C66U, the self-cleavage came to 0.156.

C14U C19G: the self-cleavage is 0.0396.

Turning to G17U G80A, the self-cleavage was found to be 0.272.

In the case of G5A C32A, the self-cleavage was found to be 0.

Values taken from the RNAGym collection of RNA variant scans (doi:10.7554/elife.80360).
